Results taken from US20110165066A1 (AbbVie / Abbott, published 2011).
Changes are numbered by the printed parent chain. Read-outs that look alike come from different tables or passages of the source. Each block holds one binder with its values, some of them ahead of it.

Legend:
human IL-13 wild type [1] = target: T1, human IL-13 wild type (human, UniProt P35225 35-146); experiment: SPR (Biacore)
T1 construct: also called h IL-13; h IL-13 wt
Protocol: (§1) The BIACORE assay (Biacore, Inc, Piscataway, N.J.) determines the affinity of antibodies with kinetic measurements of on-, off-rate constants. […] All chemicals were obtained from Biacore® AB (Uppsala, Sweden) or otherwise from a different source as described in the text. Approximately 5000 RU of goat anti-mouse IgG, (Fcγ), fragment specific polyclonal antibody (Pierce Biotechnology Inc, Rockford, Ill.) diluted in 10 mM sodium acetate (pH 4.5) was directly immobilized across a CM5 research grade biosensor chip using a standard amine coupling kit according to manufacturer's instructions and procedures at 25 μg/ml. Unreacted moieties on the biosensor surface were blocked with ethanolamine. Modified carboxymethyl dextran surface in flowcell 2 and 4 was used as a reaction surface. Unmodified carboxymethyl dextran without goat anti-mouse IgG in flow cell 1 and 3 was used as the reference surface. For kinetic analysis, rate equations derived from the 1:1 Langmuir binding model were fitted simultaneously to association and dissociation phases of all eight injections (using global fit analysis) with the use of Biaevaluation 4.0.1 software. Purified antibodies were diluted in HEPES-buffered saline for capture across goat anti-mouse IgG specific reaction surfaces. Mouse antibodies to be captured as a ligand (25 μg/ml) were injected over reaction matrices at a flow rate of 5 μl/min. The association and dissociation rate constants, kₒₙ (unit M⁻¹s⁻¹) and koff (unit s⁻¹) were determined under a continuous flow rate of 25 μl/min Rate constants were derived by making kinetic binding measurements at ten different antigen concentrations ranging from 10-200 nM. […] Binding is recorded as a function of time and kinetic rate constants are calculated.

human IL-13 wild type [2] = target: T1, human IL-13 wild type; experiment: cell-based or functional assay
[3] = target: T2, human IL-13 variant (R130Q) (human, UniProt P35225 35-146); experiment: cell-based or functional assay
T2 sequence (P35225 35-146 limits assumed, stated change not applied): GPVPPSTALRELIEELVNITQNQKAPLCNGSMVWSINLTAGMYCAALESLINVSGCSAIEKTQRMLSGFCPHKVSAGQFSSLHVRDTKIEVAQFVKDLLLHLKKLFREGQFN

human IL-13 wild type [4] = target: T1, human IL-13 wild type; experiment: cell-based or functional assay; remark: listed apart in the source
human IL-13 wild type [5] = target: T1, human IL-13 wild type; experiment: cell-based or functional assay; remark: listed apart in the source
[6] = target: T2, human IL-13 variant (R130Q); experiment: cell-based or functional assay; remark: listed apart in the source
cynomolgus IL-13 = cynomolgus IL-13 (cynomolgus, UniProt Q0PW92 21-132); experiment: cell-based or functional assay
cynomolgus IL-13, sequence (Q0PW92 entry or part of it): as the sequence (P35225 35-146 limits assumed, stated change not applied) above, with G1S, R10K, M42V, S67N, H83R, L100V counted along it

human IL-13 wild type [7] = target: T1, human IL-13 wild type; experiment: SPR (Biacore), mAb captured, IL-13 as analyte
Protocol: as §1

[8] = target: T2, human IL-13 variant (R130Q); experiment: SPR (Biacore), mAb captured, IL-13 as analyte
Protocol: as §1

mouse IL-13 = target: T3, mouse IL-13 (mouse, UniProt P20109 26-131, limits assumed); experiment: indirect ELISA, captured mAb, biotinylated mouse IL-13
T3 construct: also called mIL-13; murine IL-13
T3 sequence (looked up): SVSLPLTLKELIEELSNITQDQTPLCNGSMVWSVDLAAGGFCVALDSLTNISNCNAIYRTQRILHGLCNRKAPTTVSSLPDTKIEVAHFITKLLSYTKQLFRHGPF
Protocol: Murine anti-human IL-13 mAbs were prepared at various concentrations ranging from 0.1 to 100 ng/ml in PBS containing 0.1% BSA; 50 ul of each antibody dilution was added to the coated ELISA plate and incubated for 1 hour at room temperature. Wells were washed 3 times with PBS containing 0.05% Tween-20. […] Wells were washed 3 times with PBS containing 0.05% Tween-20. Streptavidin HRP (Pierce #21126, Rockland, Ill.) was diluted 1:20000 in PBS containing 0.1% BSA; […] was added and the plates incubated for 1 hour at room temperature. Plates were washed 3 times with PBS containing 0.05% Tween-20. Fifty microliters of TMB solution (Sigma # T0440, St. Louis, Mo.) was added to each well and incubated for 10 minutes at room temperature. The reaction was stopped by addition of 1N sulphuric acid. Plates were read spectrophotmetrically at a wavelength of 450 nm.

T1 sequence (P35225 other isoform, or with tags, fused parts or gaps limits assumed): as the sequence (P35225 35-146 limits assumed, stated change not applied) above, with Q110R counted along it

B1: 5G1.5 (antibody, human IgG1, V domains shown)
VH: QVQLVQSGAEVKKPGASVKVSCKASGYTFTTYGVSWVRQAPGQGLEWIGEIYPGNYNTYYNEKFRGKATLTADKSTSTAYMELSSLRSEDTAVYYCSRWRTSYFSDYGYFDYWGQGTLVTVSS
VL: DIVMTQSPLSLPVTPGQPASISCRSSQSLVHSHGNTYLHWYLQKPGQSPKLLIYTVSNRFSGVPDRFSGSGSGTDFTLKISRVEAEDVGVYYCSQSTHVPYTFGGGTKVEIK
notes: Humanized; The heavy chain row is printed 'VN 5G1.5'
Kd (human IL-13 wild type [1]): 22 pM
koff (human IL-13 wild type [1]): 1.91e-05 s⁻¹
kon (human IL-13 wild type [1]): 869000 M⁻¹ s⁻¹
Potency (IC50), A-549 bioassay (human IL-13 wild type [2]): 114 pM
Potency (IC50), A-549 bioassay [3]: 65.5 pM

B3: 5G1-Chim (antibody, V domains shown)
VH: QVQLQQSGAELARPGTSVKLSCKASGYTFTTYGVSWVKQRTGQGLEWIGEIYPGNYNTYYNEKFRGKATLTADKSSSTAYMQLSSLTSEDSAVYFCSRWRTSYFSDYGYFDYWGQGTTLTVSS
VL: DVVMTQTPLSLPVSLGDQASISCRSSQSLVHSHGNTYLHWYLQKPGQSPKLLIYTVSNRFSGVPDRFSGSGSGTDFTLKISRVEAEDLGVYFCSQSTHVPYTFGGGTKLEIKR
notes: also called chimeric 5G1
Kd (human IL-13 wild type [1]): 41.7 pM
koff (human IL-13 wild type [1]): 3.82e-05 s⁻¹
kon (human IL-13 wild type [1]): 915000 M⁻¹ s⁻¹
Average IC50, IL-13-induced TARC production by A-549 cells (human IL-13 wild type [4]): 41 pM
Potency (IC50), A-549 bioassay (human IL-13 wild type [2]): 76.9 pM
Potency (IC50), A-549 bioassay [3]: 69.2 pM

B4: 5G1.1 (antibody, human IgG1, V domains shown)
VH: B1 VH with Q1E, L70M, A72T, K74T, S84R, E89D, L118T
VL: B3 VL with T7S, S14T, D17Q, Q18P, L42Q, K44R, K50R, L88V, F92Y, L109V
notes: Humanized
Kd (human IL-13 wild type [1]): 27.2 pM
koff (human IL-13 wild type [1]): 2.14e-05 s⁻¹
kon (human IL-13 wild type [1]): 786000 M⁻¹ s⁻¹
Potency (IC50), A-549 bioassay (human IL-13 wild type [2]): 29 pM
Potency (IC50), A-549 bioassay [3]: 74.1 pM

B5: 5G1.2 (antibody, human IgG1, V domains shown)
VH: B1 VH with Q1E, E89D, Y95F, L118T
VL: B3 VL with T7S, S14T, D17Q, Q18P, L42Q, K44R, K50R, L88V, L109V
notes: Humanized
Kd (human IL-13 wild type [1]): 105 pM
koff (human IL-13 wild type [1]): 8.81e-05 s⁻¹
kon (human IL-13 wild type [1]): 835000 M⁻¹ s⁻¹
Potency (IC50), A-549 bioassay (human IL-13 wild type [2]): 29.5 pM
Potency (IC50), A-549 bioassay [3]: 55.3 pM

More lines, now with the values ahead:

Kd (human IL-13 wild type [1]): 56.8 pM
koff (human IL-13 wild type [1]): 9.65e-05 s⁻¹
kon (human IL-13 wild type [1]): 1.7e+06 M⁻¹ s⁻¹
Average IC50, IL-13-induced TARC production by A-549 cells (human IL-13 wild type [4]): 191 pM
Potency (IC50), A-549 bioassay (human IL-13 wild type [2]): 107 pM
Potency (IC50), A-549 bioassay [3]: 37 pM
B2: 13C5-Chim (antibody, human IgG1, V domains shown)
VH: QVTLKESGPGILQPSQTLSLTCSFSGFSLSTSDMGVDWIRQPSGKGLEWLAHIWWDDVKRYNPALKSRLTISKDTSSSQVFLMLASVDTADTATYYCARTVSSGYIYYAMDYWGQGTSVTVSS
VL: DIQMTQTASSLSASLGDRVTISCRASQDIRNYLNWYQRKPDGTVKLLIFYTSKLHSGVPSRFSGSGSGTDYSLTIRNLEQEDIATYFCQQGNTLPLTFGGGTKLEIKR
notes: also called chimeric 13C5

Average IC50, IL-13-induced TARC production by A-549 cells (human IL-13 wild type [5]): 68.2 pM
Average IC50, IL-13-induced TARC production by A-549 cells [6]: 136 pM
Average IC50, IL-13-induced TARC production by A-549 cells (cynomolgus IL-13): 340 pM
Kd (human IL-13 wild type [7]): 77.2 pM
koff (human IL-13 wild type [7]): 6.58e-05 s⁻¹
kon (human IL-13 wild type [7]): 852000 M⁻¹ s⁻¹
Kd [8]: 74.4 pM
koff [8]: 6.18e-05 s⁻¹
kon [8]: 831000 M⁻¹ s⁻¹
binding result (mouse IL-13): no binding (tested: 0.1 to 100 ng/ml)
B6: 21D9 (antibody, V domains shown)
VH: QVQLQQSGDDLVKPGASVKLSCKASGYTFTSYWINWIKQRPGQGLEWIGHIAPGSGETYDNEMFKDKAKLTVDTSSNTAYIHLSSLSSEDSAVYFCARGSFTFFYAMDYWGQGTSVTVSS
VL: DVLMTQTPLSLPVSLGDQASISCRSSQNIVHSNGKTYLEWYLQRPGQSPKLLIYKVSNRFSGVPDRFSGSGSGTDFTLKISRVEAEDLGVYYCFQGSHVPYTFGGGTKLEIKR
